According to patent US7147850:

Key:
[1] = molecular target: MUC-1 on ZR-75-1 cells deglycosylated with 4 mM Phenyl-N-alpha-D-Glucosamide (unglycosylated MUC-1) (human) (UniProt P15941); assay: FACScan on deglycosylated ZR-75-1 cells (PBS control 6.76)
[2] = molecular target: MUC-1 glycoprotein on untreated ZR-75-1 cells (glycosylated MUC-1) (human) (UniProt P15941); assay: FACScan on untreated ZR-75-1 cells (PBS control 6.23)
Sequence of MUC-1 glycoprotein on untreated ZR-75-1 cells (glycosylated MUC-1) (human) (P15941 24-1255): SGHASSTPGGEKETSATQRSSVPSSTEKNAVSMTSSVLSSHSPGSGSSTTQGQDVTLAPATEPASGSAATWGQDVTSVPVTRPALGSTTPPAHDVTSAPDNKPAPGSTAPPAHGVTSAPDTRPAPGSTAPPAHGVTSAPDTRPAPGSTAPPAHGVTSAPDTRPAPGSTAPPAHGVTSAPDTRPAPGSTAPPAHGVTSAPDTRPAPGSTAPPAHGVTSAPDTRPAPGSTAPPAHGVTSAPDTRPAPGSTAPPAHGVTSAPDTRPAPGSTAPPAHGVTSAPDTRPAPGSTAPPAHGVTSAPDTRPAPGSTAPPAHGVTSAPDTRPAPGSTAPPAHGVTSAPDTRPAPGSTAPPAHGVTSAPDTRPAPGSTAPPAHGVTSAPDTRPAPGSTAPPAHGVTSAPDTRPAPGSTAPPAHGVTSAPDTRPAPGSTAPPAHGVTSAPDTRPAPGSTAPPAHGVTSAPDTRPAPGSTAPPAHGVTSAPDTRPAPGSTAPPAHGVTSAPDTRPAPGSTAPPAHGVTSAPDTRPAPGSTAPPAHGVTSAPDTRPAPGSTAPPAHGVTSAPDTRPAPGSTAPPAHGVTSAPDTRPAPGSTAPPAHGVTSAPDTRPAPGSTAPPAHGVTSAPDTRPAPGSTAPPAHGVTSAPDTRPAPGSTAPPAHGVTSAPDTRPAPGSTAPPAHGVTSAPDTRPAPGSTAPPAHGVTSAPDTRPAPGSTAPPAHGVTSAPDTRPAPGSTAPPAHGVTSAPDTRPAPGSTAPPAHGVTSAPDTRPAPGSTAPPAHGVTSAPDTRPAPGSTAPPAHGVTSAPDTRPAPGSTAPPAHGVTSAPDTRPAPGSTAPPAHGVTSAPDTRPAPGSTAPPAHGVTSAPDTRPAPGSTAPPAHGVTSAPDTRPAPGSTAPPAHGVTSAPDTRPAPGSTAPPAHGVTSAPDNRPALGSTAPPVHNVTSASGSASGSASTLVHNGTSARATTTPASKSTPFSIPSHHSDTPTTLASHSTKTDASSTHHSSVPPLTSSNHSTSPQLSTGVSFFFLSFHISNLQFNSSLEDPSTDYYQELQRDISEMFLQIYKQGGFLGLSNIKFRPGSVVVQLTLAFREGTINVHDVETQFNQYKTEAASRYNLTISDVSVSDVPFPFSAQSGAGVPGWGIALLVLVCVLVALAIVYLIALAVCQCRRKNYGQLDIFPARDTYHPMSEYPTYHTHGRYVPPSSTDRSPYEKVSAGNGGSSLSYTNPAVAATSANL

Sequence of MUC-1 on ZR-75-1 cells deglycosylated with 4 mM Phenyl-N-alpha-D-Glucosamide (unglycosylated MUC-1) (human) (P15941 24-1255, form in doubt): as the sequence (P15941 24-1255) above

Substance: SM3 (antibody)
- % positive cells [1]: 41.3%
- % positive cells [2]: 7.49%
